The supplement of paper PMC11246515
± gives the standard deviation of the averaged measurements.

Test: total protein half-life in vivo (active degradation + dilution); higher = more stable protein
[1] = E. coli NCM3722 delta-clpP delta-lon delta-hslV, growth: N-lim chemostat, doubling time 6 h
[2] = E. coli NCM3722 delta-clpP, growth: N-lim chemostat, doubling time 6 h
[3] = wild type E. coli NCM3722, growth: N-lim chemostat, doubling time 12 h
[4] = E. coli NCM3722 delta-hslV, growth: N-lim chemostat, doubling time 6 h
[5] = E. coli NCM3722 delta-lon, growth: N-lim chemostat, doubling time 6 h
[6] = E. coli NCM3722 delta-smpB, growth: N-lim chemostat, doubling time 6 h
[7] = wild type E. coli NCM3722, growth: C-lim chemostat, doubling time 3 h
[8] = wild type E. coli NCM3722, growth: C-lim chemostat, doubling time 6 h
[9] = wild type E. coli NCM3722, growth: C-lim chemostat, doubling time 12 h
[10] = wild type E. coli NCM3722, growth: N-lim chemostat, doubling time 6 h
[11] = wild type E. coli NCM3722, growth: P-lim chemostat, doubling time 6 h
[12] = wild type E. coli NCM3722, growth: P-lim chemostat, doubling time 12 h

| Sequence | total protein half-life in vivo [1] | total protein half-life in vivo [2] | total protein half-life in vivo [3] | total protein half-life in vivo [4] | total protein half-life in vivo [5] | total protein half-life in vivo [6] | total protein half-life in vivo [7] | total protein half-life in vivo [8] | total protein half-life in vivo [9] | total protein half-life in vivo [10] | total protein half-life in vivo [11] | total protein half-life in vivo [12] |
| --- | --- | --- | --- | --- | --- | --- | --- | --- | --- | --- | --- | --- |
| MNIFTEAAKLEEQNCPFAMAQIVDSRGSTPRHSAQMLVRADGSIVGTIGGGMVERKVIEESLQALQERKPRLFHGRMARNGADAVGSDCGGAMSVFISVHGMRPRLVLIGAGHVNRAIAQSAALLGFDIAVADIYRESLNPELFPPSTTLLHAESFGAAVEALDIRPDNFVLIATNNQDREALDKLIEQPIAWLGLLASRRKVQLFLRQLREKGVAEEHIARLHAPVGYNIGAETPQEIAISVLAEILQVKNNAPGGLMMKPSHPSGHQLVVIRGAGDIASGVALRLYHAGFKVIMLEVEKPTVIRCTVAFAQAVFDGEMTVEGVTARLATSSAEAMKLTERGFIPVMVDPACSLLDELKPLCVVDAILAKQNLGTRADMAPVTIALGPGFTAGKDCHAVIETNRGHWLGQVIYSGCAQENTGVPGNIMGHTTRRVIRAPAAGIMRSNVKLGDLVKEGDVIAWIGEHEIKAPLTGMVRGLLNDGLAVVGGFKIGDIDPRGETADFTSVSDKARAIGGGVLEALMMLMHQGVKATKEVLEVA | 5.14 ± 0.82 h | 1.65 ± 0.36 h | 1.22 h | – | – | – | – | – | – | – | – | – |
| MATAKKITIHDVALAAGVSVSTVSLVLSGKGRISTATGERVNAAIEELGFVRNRQASALRGGQSGVIGLIVRDLSAPFYAELTAGLTEALEAQGRMVFLLHGGKDGEQLAQRFSLLLNQGVDGVVIAGAAGSSDDLRRMAEEKAIPVIFASRASYLDDVDTVRPDNMQAAQLLTEHLIRNGHQRIAWLGGQSSSLTRAERVGGYCATLLKFGLPFHSDWVLECTSSQKQAAEAITALLRHNPTISAVVCYNETIAMGAWFGLLKAGRQSGESGVDRYFEQQVSLAAFTDATPTTLDDIPVTWASTPARELGITLADRMMQKITHEETHSRNLIIPARLIAAK | 6.29 ± 0.064 h | 6.58 ± 1.8 h | 8.39 ± 2.1 h | 4.56 h | 5.27 ± 0.39 h | 4.45 ± 0.36 h | 2.7 ± 0.15 h | 5.25 ± 0.078 h | 8.757 ± 0.013 h | 4.64 ± 0.33 h | 4.36 ± 0.092 h | 9.01 ± 0.16 h |
| MIVRILLLFIALFTFGVQAQAIKESYAFAVLGEPRYAFNFNHFDYVNPAAPKGGQITLSALGTFDNFNRYALRGNPGARTEQLYDTLFTTSDDEPGSYYPLIAESARYADDYSWVEVAINPRARFHDGSPITARDVEFTFQKFMTEGVPQFRLVYKGTTVKAIAPLTVRIELAKPGKEDMLSLFSLPVFPEKYWKDHKLSDPLATPPLASGPYRVTSWKMGQNIVYSRVKDYWAANLPVNRGRWNFDTIRYDYYLDDNVAFEAFKAGAFDLRMENDAKNWATRYTGKNFDKKYIIKDEQKNESAQDTRWLAFNIQRPVFSDRRVREAITLAFDFEWMNKALFYNAWSRTNSYFQNTEYAARNYPDAAELVLLAPMKKDLPSEVFTQIYQPPVSKGDGYDRDNLLKADKLLNEAGWVLKGQQRVNATTGQPLSFELLLPASSNSQWVLPFQHSLQRLGINMDIRKVDNSQITNRMRSRDYDMMPRVWRAMPWPSSDLQISWSSEYINSTYNAPGVQSPVIDSLINQIIAAQGNKEKLLPLGRALDRVLTWNYYMLPMWYMAEDRLAWWDKFSQPAVRPIYSLGIDTWWYDVNKAAKLPSASKQGE | 6.04 ± 0.17 h | 6.38 ± 1.6 h | 12.8 ± 0.89 h | 5.79 ± 0.79 h | – | 5.92 ± 0.24 h | 3.0824 ± 5.7e-05 h | 6.076 ± 0.038 h | 13.3 ± 2.8 h | 6.19 ± 0.39 h | 6.46 ± 0.14 h | 12 ± 1.5 h |
| MTIKLIVGLANPGAEYAATRHNAGAWFVDLLAERLRAPLREEAKFFGYTSRVTLGGEDVRLLVPTTFMNLSGKAVAAMASFFRINPDEILVAHDELDLPPGVAKFKLGGGHGGHNGLKDIISKLGNNPNFHRLRIGIGHPGDKNKVVGFVLGKPPVSEQKLIDEAIDEAARCTEMWFTDGLTKATNRLHAFKAQ [P0A7D1] | 5.126 ± 0.023 h | – | 8.06 ± 0.66 h | 4.76 ± 0.084 h | 5.04 ± 0.51 h | 4.54 ± 0.08 h | 3.19 ± 0.081 h | 6.09 ± 0.37 h | 10.5 ± 0.85 h | 4.81 ± 0.17 h | 5.91 ± 0.13 h | 11.4 ± 0.29 h |
| MDSQRNLLVIALLFVSFMIWQAWEQDKNPQPQAQQTTQTTTTAAGSAADQGVPASGQGKLISVKTDVLDLTINTRGGDVEQALLPAYPKELNSTQPFQLLETSPQFIYQAQSGLTGRDGPDNPANGPRPLYNVEKDAYVLAEGQNELQVPMTYTDAAGNTFTKTFVLKRGDYAVNVNYNVQNAGEKPLEISSFGQLKQSITLPPHLDTGSSNFALHTFRGAAYSTPDEKYEKYKFDTIADNENLNISSKGGWVAMLQQYFATAWIPHNDGTNNFYTANLGNGIAAIGYKSQPVLVQPGQTGAMNSTLWVGPEIQDKMAAVAPHLDLTVDYGWLWFISQPLFKLLKWIHSFVGNWGFSIIIITFIVRGIMYPLTKAQYTSMAKMRMLQPKIQAMRERLGDDKQRISQEMMALYKAEKVNPLGGCFPLLIQMPIFLALYYMLMGSVELRQAPFALWIHDLSAQDPYYILPILMGVTMFFIQKMSPTTVTDPMQQKIMTFMPVIFTVFFLWFPSGLVLYYIVSNLVTIIQQQLIYRGLEKRGLHSREKKKS | 6.9 ± 1.3 h | 6.01 ± 0.51 h | 12.2 ± 0.55 h | 6.03 ± 0.043 h | 6.29 ± 0.36 h | 6.08 ± 0.42 h | 3.2 ± 0.74 h | 6.37 ± 1.8 h | – | 6.08 ± 0.64 h | 6.66 ± 0.93 h | 12.6 ± 0.7 h |
| MSEMIYGIHAVQALLERAPERFQEVFILKGREDKRLLPLIHALESQGVVIQLANRQYLDEKSDGAVHQGIIARVKPGRQYQENDLPDLIASLDQPFLLILDGVTDPHNLGACLRSADAAGVHAVIVPKDRSAQLNATAKKVACGAAESVPLIRVTNLARTMRMLQEENIWIVGTAGEADHTLYQSKMTGRLALVMGAEGEGMRRLTREHCDELISIPMAGSVSSLNVSVATGICLFEAVRQRS | 5.18 ± 0.29 h | 4.81 ± 0.49 h | 9.48 ± 0.31 h | 5.39 ± 0.28 h | 5.55 ± 0.52 h | 4.69 ± 0.23 h | 2.73 ± 0.46 h | 5.83 ± 0.66 h | 10.3 ± 0.25 h | 5.17 ± 0.15 h | 5.37 ± 0.4 h | 11.5 ± 0.28 h |
| MIIKRTPQAASPLASWLSYLENLHSKTIDLGLERVSLVAARLGVLKPAPFVFTVAGTNGKGTTCRTLESILMAAGYKVGVYSSPHLVRYTERVRVQGQELPESAHTASFAEIESARGDISLTYFEYGTLSALWLFKQAQLDVVILEVGLGGRLDATNIVDADVAVVTSIALDHTDWLGPDRESIGREKAGIFRSEKPAIVGEPEMPSTIADVAQEKGALLQRRGVEWNYSVTDHDWAFSDAHGTLENLPLPLVPQPNAATALAALRASGLEVSENAIRDGIASAILPGRFQIVSESPRVIFDVAHNPHAAEYLTGRMKALPKNGRVLAVIGMLHDKDIAGTLAWLKSVVDDWYCAPLEGPRGATAEQLLEHLGNGKSFDSVAQAWDAAMADAKAEDTVLVCGSFHTVAHVMEVIDARRSGGK | 4.62 ± 0.55 h | 4.95 ± 1.1 h | 6.07 ± 0.99 h | 4.08 ± 0.39 h | – | 3.813 ± 0.021 h | 3.151 ± 0.024 h | 5.09 ± 0.13 h | 9.2 ± 1.6 h | 3.807 ± 0.036 h | 5.34 ± 0.23 h | 9.6 ± 0.66 h |
| MFKNAFANLQKVGKSLMLPVSVLPIAGILLGVGSANFSWLPAVVSHVMAEAGGSVFANMPLIFAIGVALGFTNNDGVSALAAVVAYGIMVKTMAVVAPLVLHLPAEEIASKHLADTGVLGGIISGAIAAYMFNRFYRIKLPEYLGFFAGKRFVPIISGLAAIFTGVVLSFIWPPIGSAIQTFSQWAAYQNPVVAFGIYGFIERCLVPFGLHHIWNVPFQMQIGEYTNAAGQVFHGDIPRYMAGDPTAGKLSGGFLFKMYGLPAAAIAIWHSAKPENRAKVGGIMISAALTSFLTGITEPIEFSFMFVAPILYIIHAILAGLAFPICILLGMRDGTSFSHGLIDFIVLSGNSSKLWLFPIVGIGYAIVYYTIFRVLIKALDLKTPGREDATEDAKATGTSEMAPALVAAFGGKENITNLDACITRLRVSVADVSKVDQAGLKKLGAAGVVVAGSGVQAIFGTKSDNLKTEMDEYIRNH | 6.96 ± 0.44 h | 6.21 ± 0.099 h | 11.8 ± 0.38 h | 6.68 ± 1.2 h | 6.75 ± 0.38 h | 6.19 ± 0.17 h | 3.54 ± 0.097 h | 6.88 ± 0.64 h | 13.4 ± 2.5 h | 5.92 ± 0.44 h | 5.86 ± 0.2 h | 11.7 ± 1.6 h |
